Measured values as given in the nanobody polyreactivity screen of Harvey et al. (2022).

Test: yeast display, Sf9 membrane polyspecificity reagent, FACS + sequencing; frameworks hold sequencing errors
Summary of the method: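 Using colony PCR, genes from sorted yeast display clones were amplified, then sequenced on MiSeq at 2 × 250 and filtered by CDR length. The clones had been stained with 10% biotinylated, detergent-solubilized Sf9 membrane reagent for 1 hour at 4 °C and sorted by FACS into low and high (top ~1%) gates on anti-HA and streptavidin fluorescence. Polyreactivity labels come from the gate of origin.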

Sequence	polyreactivity (PSR sort gate)
QVQLVESGGGLVQAGGSLRLSCAASGRIFRLYAMGWYRQAPGKERELVATITSGGTYYADSVKGRFTISRDNAKNTVYLQMNSLKPEDTAVYYFAAVVYPGYVGSQEYDYWGQGTQVTVSS	low polyreactivity
QVQLVESGGGLVQAGGSLRLSCAASGITFVRYALGWYRPAPGKERELVAAISRRGGSTYYADSVKGRFTISRDNAKNTVYLQMNSLKPEDTAVYYCNAQRPKATVWQLYDSWGQGTQVTVSS	high polyreactivity
QVQLVHSGGGLVQAGGSLRLSCAASGITIWYYAMGWYRQAPGKERELVAAISWRGGSTYYADSVKGRFTISRDYAKNTVNLQMNSLKPEATAVYYCAAGYSLLYTYEYWGQGTQVTVSS	high polyreactivity
QVQLVESGGGLVQAGGSLRLSCAASGRIFPGYVMGWYRQAHGKERELVAAITRGGSTYYADSVKGRFTISRDNAKNTVYLQMNSLKPEDTAVYYCAAKHSHIHYNYWGQGTQVTVSS	low polyreactivity
QFQLVESGGGLVQAGGSLRLSCAASGSTFWTNAMGWYRQAPGKERELVAVISRGGSTNYADSVKGRFTISRDNEKNTVYLQMNSLKPEDTAVFYCAAASYLYGRYYYWGQGTQVTVSS	high polyreactivity
QVQLVESGGGLVQAGGSLRLSCAASGFIFSQYAMGWYRQAPGKERELVAAISYRGGSTYYADSVKGRFTISRDNAKNTVYLQMNSLKPEDTAVYYCNAGRRSQTYLGTCDYWGQGTQVTVSS	high polyreactivity
QVQLVESGGGLVQAGRSLRLSCAASGFTFAYYAMGWYRQAPGKERELVAAISRGGTSTYYADSVKGRFTISRDNAKNTVYLQMNSLKPEDTAVYYCNAVKVGYSLYDYWGQGTQVTVSS	high polyreactivity
QVQMQESGGGLEQAGGSLRLSCAASGNISGFGYMGWYRQAPGKEREFVAAISYGTSTYYADSVKGLFTISRDNAKNTVYLQINSLKPEDTAVFYCAALCLISKHHHYWGEGTQVTVSS	high polyreactivity
QDHLVESGGGLVEARGSLRLSCAASGFIFRGYAMGWYRQAPGKERELVAAINSGGSTNYADSVKGRFTISRDNAKNTVYLQMNSLKPEDSAVYYCAARWRSWRYKDDYWGQGSQVTVSS	high polyreactivity
QVQLVESGGGLVQAGGSLRLSCAASGFIFSRYAMGWYRQAPGKERELGATINTNGGSTYYAYSVKGRFTISRDNAKNTVYLQMNSLKPEDTAVYYCNAKYQALQRSWGRYDYWGQGTQVTVSS	low polyreactivity
QVQLVESGGGLVQAGGSLRLSCAASGFTFTMNAMGWYRQAPGKERELVAGISSGGSTNYADSVKGRFTLSRDNEKNTVYLQMNSLKPEDTAVYYCAADRGYVWRYDYWGQGTQVTVSS	low polyreactivity
QVQLVESGGGLVQAGGSLRLSCAASGLIFGSNAMGWYRQAPGKERELVAAISSGGTTKYADSVKGRFTISRDNAKNTVYLQMNSLKPEDTAVYYCAAQDYSYTTRFQDDYWGQGTQVTVSS	low polyreactivity
QVQLVESGGGLVQAGGSLRLSCAASGSTFYNYAMGWYRQAPGKERELVASITWNGGSTYYADSVKGRFTISRDNAKNTVYLQMNSLKPEDTAVYYCAAEWTWTYPYDYWGQGTQVTVSS	low polyreactivity
QVQLVESGGGLVQAGGSLRLSCASSGSTFHVNAMGWYRQAPGKERELVARISSTGRTSYADSVKGRFTISRDNAKNTVYLQMNSLKPEDTAVYYCAARYYRVYVSSDYYYWGQGTQVTVSS	high polyreactivity
QVQLVESGGGLVQAGGSLRLSCAASGSTFPYYAMGRYRQAPGKERELVAAISQNGGSTYYADSVKGRFTISRDNAKNTVYLQMNSLKPEDTAVYYCNADGVGGEYRLSGYDYWGQGTQVTVSS	low polyreactivity
QVQLVESRGGLVQAGGSLRLSCAASGRIFRYNAMGWYRQAPGKERELVAAITWSGVSTYYADSVKGRFTISRDNAKNTGYLQMNSLKPEHTAVYYCNARRWPAWSSDDYWGQGTQVTVSS	high polyreactivity
QVQLVESGGGLVQAGGSLRLSCAASGFIFAEYAMGWYRQATGKERELDAGITSGGSTSYADSVKGRFTISRDNAKNTVYLQMTSLKPDATAVYYCAATWYYHYNDWKHWYEYGYWGLGTQVTVSS	low polyreactivity
QVQLVESGGGLVQAGGSLRLSCAASGRIFRINAMGWYRQAPGKERELVASITSRAGSTYYADSVKGRFTISRDNAKNTVYLQMNSLKPEDTAVYYCAARSVYTYYRLDYWGQGTQVTVSS	high polyreactivity
QVQLVESGGGLVQAGGSLRLSCAASGFTFSWYAMGWYRQAPGKERELVAAITSGGGTNYADSVKGRFTISRDNAKNTVYLQMNSLKPEDTAVYYCAARGRWFYYLDDYWGQGTQVTVSS	low polyreactivity
QVQLVESGGGLVQAGGSLRLSCAASGNILYFYDMGRYRQAPGKERELVAVITGGGGSTYYADSVKGRYTISRDNAKNTVYLQMNRLKPEDTAVYYWAALPWFPDEEYDYWGHGTQVTVSS	high polyreactivity
QVQLVESGGGLVQAGGSLRLSCAASGGTFSVNAMGWYRQAHGTERELVAAISWRGGSTYNADSVKGRFTISRDTAKNTFYLQMNSLKPEDTAVYYCAKYRYYYYWFNYWGQGTQVNVSS	high polyreactivity
QVQLVESGGGLVQAGGSLRLSCAATRRIFRRNPMGWYIQAPGKERELVATISANGGSTYYADSVKGRFTISRDNAKNTVYLQMNSLKPEATAVYYCAAQGWSWYWYQKIYYWGQGTQVTVSS	high polyreactivity

Sequence	polyreactivity (PSR sort gate)
QVQLVESGGGLVQAGGSLRLSCAASGRPFISYAMGWYRQAPGKERELVAAISSSGGSTYYADSVKGRFTMSRDTAKNTVYLQMNSLKPEDTAVYYCNAAKVRRDPAWRLLDYWGQGTQVTVSS	low polyreactivity
QVQLVESGGGLVQAGGSLSLSCAASGSTFYYNAMGWYRQAPGKEREFVAAINWRGGSTYYADSVKGRFTISRDNAKNTVYLQMNSLKPEDTAVYYCSAEEASTYYYVRSGYDYHFWEMYSWGQGTQVTVSS	low polyreactivity
QVQLVESGGGLVQAGGSLRLSCAASGSTFSYYAMGWYRQAPGKERDLVAAISTDGGSTYYADSVKGRFTISRDNAKNTVYLQMNSLKPEDTAVYYCAALVGYYQYVWDLTYTVVEYNYWGQGTQVNVSS	low polyreactivity
QVQLVESGGGLVQGGGSLRLSCAASGRTFQRYAMGWYRQAPGKERELVAAISNRGGSTYYADSVKGRFTISRDNAKNTVYLQMNSLKPEDTAVYYCRTSTPRRVSGNYWGQGTQVTVSS	high polyreactivity
QVQLVESGGGLVQAGGSLRLSCAASGSIFRAYAMGWYRQAPGKERELVAAITWSGGRTFYADSVKGRFTISRDNAKNTVYLQMNSLKPEDTAVYYCAAFVYQRGRIYDYWGQGTQVTVSS	high polyreactivity
QVQLVESGGGLVHAGGSLRLSCAASGSTFSWYVMGWYRQAPGKERELVAAISYRGGRTYYADSVKGRFTISRDNAKNTVYLQMNSLKPEDTAVYYCAARGVVDAGRTNRPYDYWGQGTQVTVSS	low polyreactivity
QVQLVESGGGLVQAGGSLRLSCAASGFIFSGYAMGWYRQAPGKERELVAAISGGGSTYYADSVKGRFTSSRDNAKNTVYLQMNNLKPEETADYYCAARVYWSVRYYYWGQGTQVTVSS	high polyreactivity
QVQLVESGGGLVQAGGSLRLSCAASGSTCVYYPMGWYRQAPGKERELVAAIRGRDGNTYYADSVKGRFTISRDNAQNTVYLQMNSLKPEDSAVYSSAATRRNQLYGVAYRYDYWGQGTQVTVSS	high polyreactivity
QVQLVESGGGLVQAGGSLRFSCAACGMTIWYYGMGSYRQAPGKERELLAAISKTGGRTYDADSVKGRFTISRDNAKNTVYLQMNRLKPEDTAVYNCNARYLLVSRYWENDYWGQATQVTVSS	low polyreactivity
QVQLVESGGGLVQAGGSLRLSCSASGRTFVRNAMGWYRQAPGKERELVAAISSIGDSTYYADSVKGRFTISRDNAKNTVYLQMNSLKPEDTAVYYCNARGYVYYRMGYWGQGTQVTVSS	low polyreactivity
QVQLVESGGGLVQAGGILRLSFAASGSTFYPNTMGWYRQAPGKERELVAAITNGGSTNYADSVKGRFTIARDNAKNTVYLQMNSLKPEDTAVYDCAADGYDQWGRDVVYLIWTSYDYWGQGTQVTVSS	high polyreactivity
QVQLEESGGGLVKAGGSLSLSCAASGRTFYSYAMGWYRQAPGKERELVAAISAGGSTYYADSVQGRFTSSRDNAMNTLNLQMTSLKPEDTAVYYCAATYSYYYARYHYWGQGTQVTVSS	high polyreactivity
QVQLVESGGGLVQAGGSLRLSCAASGRIFKGNAMGWYRQAPGKEREFVADISQRGGSTYYADSVKGRFTISRDNAKNTVYLQMNSLKPEDTAVYYCAAVRKSVGVKYDYWGQGTQVTVSS	high polyreactivity
QVQLVESGGGLVQAGGSLRLSCAASGSTFNKYTMGWYRQAPGKEREFVAAISRIGGSTYYADSVKGRFTISRDNAKNTVYLQMNSLKPEDTAVYYCATGVRPLRKKPVEFYHWGQGTQVTVSS	low polyreactivity
PVQLVESGGGLVQAGGSLRLSCAASGFISQDNAMGWYRQAPAKERELVATISGSGGITYYADSVKGRFTISRANAKTTVYVQMNSLKPEDTAVYYCNNEISYLSWGYDYWGQGTQVTVSS	low polyreactivity
HVQLVESGGGLVQAGGSLRLSCAASGFTFGYYAMGWYRQAPGKERELVAAISSSGGSTYYADSVKGRFTISRDNAKNTVYLQMNSLKPEDTAVYFCAVVVFSRVYRYFTSDYWGQGTQVTVSS	high polyreactivity
QVQHVESGGGLVQAGGSLRLSCAASGSIFGVNVMGWYRQAPGKERELVAAISSGGGSTYYAESVKGRFTISRDNAKNTVYLQMNSLKPEDTAVYYCAARGQKYGSTYRMDYWGQGTQVTVSS	low polyreactivity
QVQLVESGGGLVQAGGSLRLSCAASGSIFGVYTMGWYRQAPGKERELVAAITSAGSTYADSVKGRFTISRDKAKNTVYLQMNSLKPEDTAVYYCNAQSVLLSLRVELREPHEYWGQGTQVTVSS	low polyreactivity
QVQLVESGGGLVQAGGSLRLSCAASGFIYKFYAMGWYRQEPGKVRELVAAISDSGGSTYYADSVKGRFTISRDNAKNTVYLQMNSLKPEDTAVYYCNADWSWNNYYDFDYWGLGTQVTVSS	low polyreactivity
QVQLVESGGGLVQAGGSLRLSCAASGRIFYTYAMGWYRQAPGKERELVAAISRSGVSTYYADSVKGRFTISRDTAKNTVYLQMNSLKPEDTAVYYCAARWRSGFTSGDYWGQGTQVTVSS	low polyreactivity
QVQLVESGGGLVQAGGSLGLSCAAYGSTFRYYAMGWYRQAPGKERELVAAISSAGNTYYADSVKGRFTISRDNAKNTVYLQMNSLKPEDTAVYYCAAKYSYYTYAGDGGLFSCSYGYWGQGTQVTVSS	low polyreactivity
